{"source": "paper PMC4947441", "substrate": "CCCC(=O)OP(=O)(O)O", "assay": "purified protein", "assay_type": "biochemical, Listeria monocytogenes", "conditions": "500 µM CoA, 100 mM Tris pH 7.5, 25 °C", "data": [{"protein": "Ptb (phosphotransbutyrylase, LmPtb) (Listeria monocytogenes EGD-e) (protein) MTKSRFFSDVAETSSFVFAVAGADDEVVLETIRLALKQKLGKFLLFGKKEDKTLTANESVTWIQTDTAEAAAQGAILAVKNKEADILVKGFIPTATLMHHVLKKENGLRTDQLLSQIAIFDIPTYHKPLLITDCAMNVAPKTKEKIAITENALAVAHQIGITNPKIALLSAVEEVTAKMPSTLEAQEVVQHFGNQISVSGPLALDVAISKEAALHKGITDSSAGEADILIAPNIETGNALYKSLVYFAGAKVGSAVVGAKVPIVISSRNDSPENKLASFILTVRLVEK", "values": [{"measurement": "Km", "result": 1040, "unit": "µM"}]}]}
